From article PMC11908486
pKd: −log10 of the molar value.

Biological target: bACE2_(Ra5538)-Fc (Rhinolophus affinis)
Assay: BLI

## SARS-CoV-2-RBD-monomer (from UniProt P0DTC2) (domain or fragment)
  pKd: 6.15
